From the nanobody polyreactivity screen of Harvey et al. (2022)

Test: yeast display, Sf9 membrane polyspecificity reagent, FACS + sequencing; frameworks hold sequencing errors
Summary of the method: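 A nanobody's polyreactivity label depends on the gate it was sorted from. Yeast display cells were stained with 10% biotinylated, detergent-solubilized Sf9 membrane reagent for 1 hour at 4 °C, enriched on streptavidin microbeads and sorted by FACS. The low and high (top ~1%) gates were set on anti-HA fluorescence for expression and streptavidin fluorescence for reagent binding.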

Row | Sequence | polyreactivity (PSR sort gate)
1 | QVQLVESGGGLVQAGGSLRLSCAASGIIFYGYVMGWYRQAPGKERELVATITSSGGSTYYADSVKGRFTISRDNAKNTVYLQMNSLKPEDTAVYYCAAYYYYGAWVRHDYWGQGTQVTVSS | low polyreactivity
2 | QVQLVESVGGLVQAGGSLRLICDASGFTFYAYAIGWYRQAPGKERELVAAITYIGSTYYADSVKGRFTISRDNAKNTVYLQMNSLKPEETAVYYCAVEFLPSFNRYDYWGQGTQVTVSS | low polyreactivity
3 | QVQLVESGGGLVQAGGSLRLSCAASGYTFIDNAMGWYRQAPGKERELVAAISWSVDRTYYADSVKGRFTISRDNAKNTVYLQMNSLKPEDTAVYYCAAVHWWSSSLRMYYWGQGTQVTVSS | low polyreactivity
4 | QVQLVESGGGLVQAGGSLRLSCAASGSTYYENTMGWYRQAPGKEREMVAAISFRGGSTYYADSVKGRFTISRDNAKNTVYLQMNSLKPDDTAVYYCAKEYYTVRLYDYWGQGTQGTVSS | low polyreactivity
5 | QVQLQESGGGMVQAGGSLRLSSAASGYISWADSMGWYRQAPGKERELVAGIGYGSTTYYADSVKGRFTISRDNAKNTAYLQMNSLKPEDTAVYYCSVGWYRDTAYKYWGQGTQVTVRS | low polyreactivity
6 | QVQLVESGGGLVQAGGSLRLSCAASGSTFGVNAMGWYRQAPGKERELVAVITRSGGSTYYADSVKGRFTISRDNAKNTVYLQMNSLKPEDTAVYYCATSGVVDWGQGTQVTVSS | low polyreactivity
7 | QVQLVESGGGLVQAGGSLRLSCAASGRTFAINAMGWYRQATAKERELVADITTDGYTYYADSVKGRFTISRDNAKNTVYLQMNSLKPEDTAVYYCATDSLDYFIRFKQFGYWGQGTQVTVSS | low polyreactivity
8 | QVQLVESGGGLVQAGGSLRLSCAASGRTFGSNTMGWYRQAPGKERELVAAISGTGTSTYYADSVKGRFTISRDNAKNTVYLQMNSLKQEDTAVYYCAAGWYKYLFQPHDYWGQGTQVTVSS | low polyreactivity
9 | QVQLVESGGGLVQAGGSLRLSCAASGGPFWYYAMGWYRQAPGKERELVAAITRGGSTSYADSVKGRFTISRDNAKKTVYLQMNSLKPEDTAVYYCNARPYSSYWRYNYWGQGTQVTVSS | high polyreactivity
10 | QVQLVESGGGLVQAGGSLRLSCAASGGTFWYNAMGLYRQAPGKERELVANIRRSGGRTNYADSVKGRFTISRDNAKNTVYLHMNSLKPEDTAVYYCAARVTPYRGFYYWGQGTQVTVSS | high polyreactivity
11 | QVQLVESGGGLVQAGGSLRLSCAASGFTFFHNAMGWYRQAPGKERELVAAITSGGNTYYADSVKGRFTISRDNAKNTVYLQMNSLKPEDTAVYFCNAVISRVVRYEYWGQGTQVTVSS | high polyreactivity
12 | QVQLVESGGGLVQAGGSLRLSCAASGLIFLRNAMGWYRQAPGKERELVAAISRSGGSTYYADSVKGRFTISRDYAKNTVYLQMNSLKPDDTAVYYCAKYGYGGVIPGPDHYDYWGQGTQVTVSS | high polyreactivity
13 | QVQLVESGGGLVQAGGSLRLSSAASGSIYGYTMGWYRQAPGKERELVAAINRRADRTYYADSVKGRFTISRDNAKNTVYLEMNILKPEDTAVYYCNKGGWYTLGYWGQGTQVTVSS | high polyreactivity
14 | QVQLVDSGGGLVQAGGSLRLSCAASGSTFTSYAMGWYRQAPGKERELVAAITGSGGRTYYADSVKGRFTISRDNAKNTVYLQMNSLKPEDTAVYYCAARKVRTVYQSRGNYWGQGTLVTVSS | high polyreactivity
15 | QVQLVESGGGLVQAGGSLRLSCAASGSTFTSNAMGWYRQAPGKERELVASISGSGGRTYYADSVKGRFTISRDNAKNTVYLQMNSLKPEDTAVYYCNAESRNLYSTQFDYLGQGTQVTVSS | low polyreactivity
16 | QVQLVESGGGLVQAGCSLRLSWAASGFTFAYYAMGWSRQAPGKERDLVASITSSGGSTYYADSVKGRFTISRDNAKNTVYLQMNSLKPEDTAVYYCNKAYRGVYYGYEYWGQGTQVTVSS | high polyreactivity

Row | Sequence | polyreactivity (PSR sort gate)
17 | QVQLLESGGGLVQAGGSLRISCAASGIFDPNAMGWYIQAPGKERELVAAITSGGSTNYADSVKGRFTISRDNAKNTFYLQMNSLKPEDTAVYYCNEDYDRPDFYFWVQGTQVTVSS | low polyreactivity
18 | QVQLVESGGGLVQAGGSLRLSCAASGRIFKGNAMGWYRQAPGKEREFVAAISQRGGSTYYADSVKGRFTISRDNAKNTVYLQMNSLKPEDTAVYFCAAAAQRPEGYYWGQGTQVTVSS | high polyreactivity
19 | QVQLVESGGGLVQAGGSLRLSCAASGFTFSPYAMGWYRQAPGKERELVAAISSSGGSTYYADSVKGRFTISRDNAKNTVYLQMNSLKPEDTAVYYCATQGTRRPGKFYYWGQGTQVTVSS | high polyreactivity
20 | QVQLVESGGGLVQAGGSLRLSCAASGSNFSYYTMGWYRRATGKERELVAGITWSGGGTSYADSVKGRFTISRDNAKNTVYVQMNSLKPEDTAVYYCAAVDIGRYYRLDYWGQGTQVTVSS | low polyreactivity
21 | QVQLVESGGGLVQAGGSLRLSCAAYGSIFALYAMGWYRPAPGKERELVARISSGGSTYYADSVKGRFTISRDNAKNTVYLQMNSLKPEDTAVYYCARYHKTHAVLRYDYWGQGTQVTVSS | low polyreactivity
22 | QVQLVESGGGLVQAGGSLRLSCADSGFTFSWYTMGWYRQAPGKERELVAALTVSGGSTYYADSVKGRFTISRDNAKNTVYLQMNSLKPEDTAVYYCNAQDPFTYYSSSPTYDYWGQGTQVTVSS | low polyreactivity
23 | QVKLVESGAGLVHAGGSLRLSCAASGFIFFYYAMGRYRQAPGKERYLVATISANGGNTYYADSVKGRFTISRDNAKNTVYLQMNRLKPEDTAVYYCARYTWYLRDWQWYYWGDEDYWGQGTQVTVSS | high polyreactivity
24 | QVQLVESGGGLVQAGGSLRLSCAASGLILSSNAMGWYRQAPGKERELVAAITWDGDRTYADSVKGRFTISRDNAKNTVYLQMNSLKPEDTAVYYCAADKQYSWYDWSYDYWGQGTQVTVSS | low polyreactivity
25 | QVQLVESGGGLVQAGGSLRLSCAASGFTFRYYAMGWYRQAPGKERELVAAITRNGGSTYYADSVKGRFTISRDNAKHTVYLQMNSLKPEETAVYYCNRYGRQYDFYYWGQGTQVTVSS | high polyreactivity
26 | QVQLIESGGGLVQAGGSLRLSCAASGNIFAVYAMGWYRQAPGKERELVASITVSGASTYYADSVKGRFTISRDNAKNTVYLQMNSLKPEDTAVYYCAARIGSNQRKRYYWGQGTQVTVSS | high polyreactivity
27 | QVKLVDSGGGLVQAGGILRLSCAASGRIFSDYAMGWYRQAPGKERELVATITSGDSTNYADSVKGRFTISRDNAKNTVYLQMNSLKPEDTAVYYCNADRVYVRGRFTYDYWGQGTQVTVSS | low polyreactivity
28 | QVQLVESGGGLVQAGGSLRLSCAASGRTFTQYAMGWYRQAPGKERELVAAISWRGGSTYYADSVKGRFTISRDNAKNTVYLQMNSLKPEDTAVYYCAKRYFRGYPLYDYWGQGTQVTVSS | high polyreactivity
29 | QVQLVESGGGLVQAGGSLRLSCAASGRTFFGNAKGWYRQAPGKERELVASISTRGGSTYYADSVKGRFTISRDNAKNTVYLQMNSLKPEDTAVYYCAKRGRDRRIYGYWGQGTQVTVSS | high polyreactivity
30 | QVQLVESRGGLVQAGGSLRLSCAASGITFPRYAMGWYRPAPGKERELVARITSGGRTNYADSVKGRFTISRDNAKNTVYLQMNSLKPEDTAFYYCNAVAQSGRYDYWGQGTQVTVSS | high polyreactivity
31 | QVQLVESGGGLVQAGGSLRLSCAASGRIFFAYAMGWYRQAPGKERELVAAIRFSGGTTYYADSVKGRLTFSRDNAKNTVYLQMNSLKQEDTAVYYFAAGRRRSSSGYGYWGKGTQVTVSS | high polyreactivity
32 | QVQLVESGGGLVQAGGSLRLSCAASGSTFTDYDMGWYRQAPGKERELVAAITSGGSTNYADSVKGRCTISRDNAKNTVYLQMNRLKPEDTAVYYWAAADADSKYDYWGQGTQVTVSS | low polyreactivity
